Test results as given in PMC6985235 (2020).

Molecular target: His-TvCyP1 (Trichomonas vaginalis, UniProt A2DT06 1-173)
Assay: ITC; 25°C

B1: His-Myb3^53–180 (domain or fragment)
chain: KGPFTEAEDDLIREYVKENGPQNWPRITSFLPNRSPKQCRERWFNHLDPAVVKHAWTPEEDETIFRNYLKLGSKWSVIAKLIPGRTDNAIKNRWNSSISKRISTNSNHKEILLPDRSKKRKAADVPKK
With B1 the Kd was 2.04 mM.
